Data: PMC3513585

Target: denatured human type I collagen (gelatin) (human) (UniProt P02452)
Assay: ELISA

Chain of denatured human type I collagen (gelatin) (human) (P02452 162-1218, chain 1 of 2): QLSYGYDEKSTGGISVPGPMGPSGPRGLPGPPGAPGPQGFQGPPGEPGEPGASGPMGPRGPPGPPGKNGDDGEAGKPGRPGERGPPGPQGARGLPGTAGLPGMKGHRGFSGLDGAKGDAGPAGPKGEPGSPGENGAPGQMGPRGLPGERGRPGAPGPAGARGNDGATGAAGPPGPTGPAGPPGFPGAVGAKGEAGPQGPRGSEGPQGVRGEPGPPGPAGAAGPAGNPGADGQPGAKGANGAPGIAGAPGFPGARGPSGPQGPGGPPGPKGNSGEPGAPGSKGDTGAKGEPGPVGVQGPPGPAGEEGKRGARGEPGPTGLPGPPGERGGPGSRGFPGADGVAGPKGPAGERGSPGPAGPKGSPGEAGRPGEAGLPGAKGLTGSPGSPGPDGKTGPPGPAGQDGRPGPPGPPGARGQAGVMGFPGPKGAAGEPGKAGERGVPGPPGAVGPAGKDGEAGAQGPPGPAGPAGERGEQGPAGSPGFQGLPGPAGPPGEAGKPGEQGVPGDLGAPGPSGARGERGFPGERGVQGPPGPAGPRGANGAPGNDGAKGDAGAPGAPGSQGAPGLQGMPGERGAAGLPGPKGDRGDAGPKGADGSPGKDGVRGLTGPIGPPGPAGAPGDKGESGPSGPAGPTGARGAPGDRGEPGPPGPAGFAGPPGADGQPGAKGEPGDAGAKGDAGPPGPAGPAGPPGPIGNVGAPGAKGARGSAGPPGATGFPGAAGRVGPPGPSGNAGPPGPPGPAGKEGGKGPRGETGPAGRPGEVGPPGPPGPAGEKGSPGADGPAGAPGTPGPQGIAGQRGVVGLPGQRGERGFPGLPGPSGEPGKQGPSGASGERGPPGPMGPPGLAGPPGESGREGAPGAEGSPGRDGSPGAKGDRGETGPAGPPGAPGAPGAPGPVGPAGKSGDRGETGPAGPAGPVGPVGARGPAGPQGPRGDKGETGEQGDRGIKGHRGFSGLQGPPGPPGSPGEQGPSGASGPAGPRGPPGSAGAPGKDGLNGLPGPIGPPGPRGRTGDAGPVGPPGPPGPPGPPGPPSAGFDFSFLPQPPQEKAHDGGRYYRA
Chain of denatured human type I collagen (gelatin) (human) (P08123 80-1119, chain 2 of 2, further chain): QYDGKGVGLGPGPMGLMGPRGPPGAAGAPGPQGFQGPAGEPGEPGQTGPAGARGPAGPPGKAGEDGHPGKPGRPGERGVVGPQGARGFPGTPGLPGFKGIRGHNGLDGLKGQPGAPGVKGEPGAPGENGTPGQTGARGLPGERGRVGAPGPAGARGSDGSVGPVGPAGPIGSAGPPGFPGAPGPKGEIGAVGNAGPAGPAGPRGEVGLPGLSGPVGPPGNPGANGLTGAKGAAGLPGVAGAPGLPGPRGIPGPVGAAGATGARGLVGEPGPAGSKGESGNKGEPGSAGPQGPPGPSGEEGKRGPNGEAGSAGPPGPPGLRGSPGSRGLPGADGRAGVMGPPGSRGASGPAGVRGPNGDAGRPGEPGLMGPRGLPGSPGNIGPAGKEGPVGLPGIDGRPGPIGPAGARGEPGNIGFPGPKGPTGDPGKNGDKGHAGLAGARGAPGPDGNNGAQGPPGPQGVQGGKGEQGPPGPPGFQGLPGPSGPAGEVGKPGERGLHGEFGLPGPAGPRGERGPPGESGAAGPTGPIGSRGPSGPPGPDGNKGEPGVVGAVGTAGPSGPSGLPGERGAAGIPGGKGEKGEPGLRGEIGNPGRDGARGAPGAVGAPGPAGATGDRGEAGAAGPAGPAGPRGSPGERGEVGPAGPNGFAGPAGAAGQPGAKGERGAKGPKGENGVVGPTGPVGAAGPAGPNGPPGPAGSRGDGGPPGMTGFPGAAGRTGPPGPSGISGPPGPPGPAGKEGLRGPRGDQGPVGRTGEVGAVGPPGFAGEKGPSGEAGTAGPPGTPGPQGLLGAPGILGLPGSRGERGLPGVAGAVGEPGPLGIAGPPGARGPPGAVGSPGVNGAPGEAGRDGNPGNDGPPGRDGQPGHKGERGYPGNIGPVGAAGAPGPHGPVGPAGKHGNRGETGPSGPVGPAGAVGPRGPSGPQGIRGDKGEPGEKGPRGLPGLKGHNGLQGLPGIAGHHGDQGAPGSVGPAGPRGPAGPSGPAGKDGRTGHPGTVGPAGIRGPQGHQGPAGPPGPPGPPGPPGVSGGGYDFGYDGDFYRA

Substance | Kd [nM]
MMP-2 F297A (variant of MMP-2Δpro, CBD module 2) (from UniProt P08253 30-660) (enzyme) | 2.8
MMP-2 F297A/R368A (variant of MMP-2Δpro, CBD modules 2+3) (from UniProt P08253 30-660) (enzyme) | 37.6
MMP-2 R252A/F297A (variant of MMP-2Δpro, CBD modules 1+2) (from UniProt P08253 30-660) (enzyme) | 5.84
MMP-2 R252A/R368A (variant of MMP-2Δpro, CBD modules 1+3) (from UniProt P08253 30-660) (enzyme) | 7.49
MMP-2 R368A (variant of MMP-2Δpro, CBD module 3) (from UniProt P08253 30-660) (enzyme) | 3.56

Now those with a lower Kd, led by results:

Kd [nM] | Substance
2.58 | MMP-2 R252A (variant of MMP-2Δpro, CBD module 1) (from UniProt P08253 30-660) (enzyme)
1.03 | MMP-2Δpro (constitutively active matrix metalloproteinase-2 without the prodomain; wild-type) (from UniProt P08253 30-660) (enzyme)
